# Where a chain is given by its changes, count along the chain named. Names and notes keep the numbering of the source.
# B1: EcoR124I HsdR subunit, wild type (enzyme)
# chain: MTHQTHTIAESNNFIVLDKYIKAEPTGDSYQSESDLERELIQDLRNQGYEFISVKSQSAMLANVREQLQNLNGVVFNDSEWRRFTEQYLDNPSDGILDKTRKIHIDYICDFIFDDERLENIYLIDKKNLMRNKVQIIQQFEQAGSHANRYDVTILVNGLPLVQIELKKRGVAIREAFNQIHRYSKESFNSENSLFKYLQLFVISNGTDTRYFANTTKRDKNSFDFTMNWAKSDNTLIKDLKDFTATCFQKHTLLNVLVNYSVFDSSQTLLVMRPYQIAATERILWKIKSSFTAKNWSKPESGGYIWHTTGSGKTLTSFKAARLATELDFIDKVFFVVDRKDLDYQTMKEYQRFSPDSVNGSENTAGLKRNLDKDDNKIIVTTIQKLNNLMKAESDLPVYNQQVVFIFDECHRSQFGEAQKNLKKKFKRYYQFGFTGTPIFPENALGSETTASVFGRELHSYVITDAIRDEKVLKFKVDYNDVRPQFKSLETETDEKKLSAAENQQAFLHPMRIQEITQYILNNFRQKTHRTFPGSKGFNAMLAVSSVDAAKAYYATFKRLQEEAANKSATYKPLRIATIFSFAANEEQNAIGEISDETFDTSAMDSSAKEFLDAAIREYNSHFKTNFSTDSNGFQNYYRDLAQRVKNQDIDLLIVVGMFLTGFDAPTLNTLFVDKNLRYHGLMQAFSRTNRIYDATKTFGNIVTFRDLERSTIDAITLFGDKNTKNVVLEKSYTEYMEGFTDAATGEAKRGFMTVVSELEQRFPDPTSIESEKEKKDFVKLFGEYLRAENILQNYDEFATLKALQQIDLSDPVAVEKFKAEHYVDDEKFAELQTIRLPADRKIQDYRSAYNDIRDWQRREKEAEKKEKSTTDWDDVVFEVDLLKSQEINLDYILGLIFEHNRQNKGKGEMIEEVKRLIRSSLGNRAKEGLVVDFIQQTNLDDLPDKASIIDAFFTFAQREQQREAEALIKEENLNEDAAKRYIRTSLKREYATENGTELNETLPKLSPLNPQYKTKKQAVFQKIVSFIEKFKGVGGKI
# B2: EcoR124I HsdR Q179K (enzyme)
# chain: B1 chain with Q179K
# B3: EcoR124I HsdR Y183F (enzyme)
# chain: B1 chain with Y183F
# B4: EcoR124I HsdR Y183A (enzyme)
# chain: B1 chain with Y183A
# Molecular target: EcoR124I MTase (M2S1 complex) (UniProt P10484)
# Test: native gel or EMSA
# UniProt P10484, sequence (P10484 whole entry, chain 1 of 2): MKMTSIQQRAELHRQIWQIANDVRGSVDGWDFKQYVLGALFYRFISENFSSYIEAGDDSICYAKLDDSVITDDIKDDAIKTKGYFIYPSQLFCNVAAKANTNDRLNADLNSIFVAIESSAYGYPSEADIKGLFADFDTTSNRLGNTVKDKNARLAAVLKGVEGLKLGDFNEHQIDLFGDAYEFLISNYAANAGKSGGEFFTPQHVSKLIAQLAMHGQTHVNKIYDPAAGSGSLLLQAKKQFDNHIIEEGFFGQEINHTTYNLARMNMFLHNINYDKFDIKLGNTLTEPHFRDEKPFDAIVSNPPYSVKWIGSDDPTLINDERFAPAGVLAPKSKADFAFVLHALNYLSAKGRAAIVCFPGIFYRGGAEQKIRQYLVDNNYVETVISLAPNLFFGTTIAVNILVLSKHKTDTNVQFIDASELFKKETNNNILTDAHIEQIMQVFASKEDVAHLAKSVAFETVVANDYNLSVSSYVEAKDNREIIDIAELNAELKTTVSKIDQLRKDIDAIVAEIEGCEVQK
# UniProt P10484, sequence (P10485 whole entry, chain 2 of 2, further chain): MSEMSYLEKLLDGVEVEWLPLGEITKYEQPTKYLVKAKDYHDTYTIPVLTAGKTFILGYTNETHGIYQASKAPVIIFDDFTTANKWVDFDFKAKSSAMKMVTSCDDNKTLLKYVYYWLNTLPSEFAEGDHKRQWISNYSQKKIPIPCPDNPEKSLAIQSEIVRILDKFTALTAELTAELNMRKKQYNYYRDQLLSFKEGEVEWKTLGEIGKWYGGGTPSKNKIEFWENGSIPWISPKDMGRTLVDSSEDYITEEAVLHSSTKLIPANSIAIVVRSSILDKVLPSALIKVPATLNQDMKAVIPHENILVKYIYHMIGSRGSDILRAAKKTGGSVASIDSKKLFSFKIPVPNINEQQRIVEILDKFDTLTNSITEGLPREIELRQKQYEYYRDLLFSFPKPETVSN
row,Binder,"K1,app (first HsdR on the DNA-bound MTase, R1 complex) [nM]"
1,B1,15
2,B2,10
3,B3,14
4,B4,15
